Experimental findings from paper PMC3597819 (The Journal of Biological Chemistry, 2013) are described below.

The series concerns the molecule itself. The series is described as follows: crystal structure.

B1: KLHL11 BTB-BACK domains (residues 67-340) (domain or fragment, human, UniProt Q9NVR0 67-340, looked up)
chain: EAEDFECSSHCSELSWRQNEQRRQGLFCDITLCFGGAGGREFRAHRSVLAAATEYFTPLLSGQFSESRSGRVEMRKWSSEPGPEPDTVEAVIEYMYTGRIRVSTGSVHEVLELADRFLLIRLKEFCGEFLKKKLHLSNCVAIHSLAHMYTLSQLALKAADMIRRNFHKVIQDEEFYTLPFHLIRDWLSDLEITVDSEEVLFETVLKWVQRNAEERERYFEELFKLLRLSQMKPTYLTRHVKPERLVANNEVCVKLVADAVERHALRAENIQSGT
Broadly, the stoichiometry N is a count of units in the complex or per binding partner. With B1, the “stoichiometry N” value stood at 2.
